Patent US20190225687A1 (I MAB, published 2019)
Substitutions are numbered along the chain they refer to.

T1: human LAG3 of the LAG3 and MHC II binding assay kit (Cisbio, 64ICP03PEG) (human, UniProt P18627 23-450, limits assumed)
T1 construct: Bought kit reagent
T1 sequence (looked up): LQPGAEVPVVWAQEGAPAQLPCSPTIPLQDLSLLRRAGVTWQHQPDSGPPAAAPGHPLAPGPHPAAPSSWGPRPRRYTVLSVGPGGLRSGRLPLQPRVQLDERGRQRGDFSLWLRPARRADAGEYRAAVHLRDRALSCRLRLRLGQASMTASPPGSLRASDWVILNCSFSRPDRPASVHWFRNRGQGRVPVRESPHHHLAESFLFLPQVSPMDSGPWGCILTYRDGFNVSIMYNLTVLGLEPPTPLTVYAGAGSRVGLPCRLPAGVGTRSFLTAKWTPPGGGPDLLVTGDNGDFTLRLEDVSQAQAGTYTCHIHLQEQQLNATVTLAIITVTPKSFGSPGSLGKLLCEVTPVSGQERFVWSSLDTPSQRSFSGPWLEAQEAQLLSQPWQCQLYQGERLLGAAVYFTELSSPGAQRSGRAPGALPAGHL

T2: LAG3 antigen of the Octet RED96 runs (UniProt P18627 23-450, limits assumed)
T2 sequence (looked up): T1 sequence (looked up)

B1: 147H-13 (antibody, V domains shown)
VH: EVQLVQSGAEVKKPGASVKVSCKASGYTFTNYWLGWIKQAPGQGLEWIGDIYPGGDYINYNEKFKGKATLTADTSISTAYMELSRLRSDDTAVYYCARPNLPGDYWGQGTTVTVSS
VL: DIVMTQSPLSLPVTPGEPASISCRSSKSLLHSNGITYLYWYLQKPGQSPQLLIYQVSNLASGVPDRFSGSGSGTDFTLKISRVEAEDVGVYYCAQNLELPWTFGGGTKVEIK
notes: also called 147H4-13
B2: 147H 3550 (antibody, V domains shown)
VH: B1 VH with G103K, Y105H
VL: B1 VL with G34A, N96Y
B3: 147H 3807 (antibody, V domains shown)
VH: B1 VH with N59V, G103K, Y105H
VL: B1 VL with G34A, N96Y
notes: also called B3807
B4: 147H 3549 (antibody, V domains shown)
VH: B1 VH with G103K, Y105H
VL: B1 VL with G34A, N96Y, L99E
B5: 147H 3421 (antibody, V domains shown)
VH: B1 VH with G103K, Y105H
VL: B1 VL with G34A
B6: 147H 3669 (antibody, V domains shown)
VH: B1 VH with T28L, N59V
VL: B1 VL with G34A
B7: 147H 3508 (antibody, V domains shown)
VH: B1 VH with G103K, Y105H
VL: B1 VL with G34A, A94G
B8: 147H 3809 (antibody, V domains shown)
VH: B1 VH with T28L, N59V, G103K, Y105H
VL: B1 VL with G34A, N96Y
B9: 147H 3811 (antibody, V domains shown)
VH: B1 VH with T28L, N59V, G103K, Y105H
VL: B1 VL with G34A, S61T, A94G, N96Y
B10: 147H 3663 (antibody, V domains shown)
VH: B1 VH with T30E, N59V
VL: B1 VL with G34A, S61R
B11: 147H 3810 (antibody, V domains shown)
VH: B1 VH with T28L, N59V, G103K, Y105H
VL: B1 VL with G34A, S61T, N96Y
notes: also called B3810
B12: 147H 3808 (antibody, V domains shown)
VH: B1 VH with N59V, G103K, Y105H
VL: B1 VL with G34A, A94G, N96Y
B13: 147H 3792 (antibody, V domains shown)
VH: B1 VH with N59V
VL: B1 VL with G34A, N96Y
B14: 147H 3668 (antibody, V domains shown)
VH: B1 VH with N59V
VL: B1 VL with G34A, S61T
B15: 147H 3794 (antibody, V domains shown)
VH: B1 VH with T28L, N59V
VL: B1 VL with G34A, N96Y
B16: 147H-6 (antibody, V domains shown)
VH: B1 VH with E1Q
VL: B1 VL

Target: T1, human LAG3 of the LAG3 and MHC II …
Assay: TR-FRET LAG3/MHC II binding assay (Cisbio); blocks MHC II
Experimental: To measure the ability of anti-LAG3 monoclonal antibodies to block the interaction between human LAG3 and MHCII, the LAG3 and MHC II binding assay (Cisbio, 64ICP03PEG) were performed utilizing homogeneous TR-FRET technology, following the protocol provided by the kit manufacturer. Anti-human LAG3 antibodies were 3-fold diluted ranging from 100 nM to 5 pM (10 points). Fluorescence data was acquired on a PerkinElmer Envision plate reader and a four-parameter dose-response curve was fitted to obtain IC50 of each antibody.

Row | IC50 [pM] | Binder
1 | 2200 to 7600 | B1
2 | 390 | B2
3 | 310 | B3
4 | 440 | B4
5 | 1500 | B5
6 | 1200 | B6
7 | 550 | B7
8 | 960 | B8
9 | 590 | B9
10 | 2700 | B10
11 | 630 | B11
12 | 500 | B12
13 | 730 | B13
14 | 900 | B14
15 | 630 | B15

Target: T2, LAG3 antigen of the Octet RED96 runs
Assay: BLI, Octet RED96, full kinetics, antigen 3.125-50 nM
Experimental: The binding affinity was calculated by software in Octet® RED96 System.

Row | Kd [pM] | koff [s⁻¹] | kon [M⁻¹ s⁻¹] | Binder
16 | 26500 | 0.00312 | 118000 | B16
